Assay results taken from patent US11472839B2, “Peptide capable of forming a gel for use in tissue engineering and bioprinting” (KING ABDULLAH UNIVERSITY OF SCIENCE AND TECHNOLOGY, priority 2017, dated 2022).
Non-standard residues stand in square brackets, D forms with d. Cha = N[C@@H](CC1CCCCC1)C(=O)O

What was measured:
[1] = Transmission electron microscopy (TEM) of peptide nanofibers; assay type: physicochemical; details: TEM images (13 for IVFK, 10 for IVZK), distribution curve; IVZK shows three types of average diameter, 8.6 nm most abundant, 4.0 nm single monomer fiber
Method: The TEM studies were carried out on two different instruments; Tecnai G2 Spirit Twin with accelerating voltage of 120 kV and FEI Titan G2 80-300 CT with 300 kV emission gun. The Cryo TEM imaging was performed in low dose mode by using FEI's Titan Krios operating at 300 kV. The TEM samples for peptide nanofiber were prepared from diluted peptide hydrogel in water. One drop of this solution was then introduced on a carbon coated copper grid that has been treated with glow discharge plasma before being used. The drop was then kept for 10 minutes before being blotted using filter paper. To get a better contrast, the grid was stained using 2% uranyl acetate for 1 minute and then was dried for at least one day before imaging. The diameter of IVFK and IVZK peptide nanofibers were measured using an image-analysis software ImageJ from 13 and 10 TEM images, respectively. A size distribution histogram for each peptide nanofiber was created in Origin to calculate the average diameter of both peptides. See e.g. FIG. 1B.

[2] = Peptide hydrogel preparation / self-assembly (gelation); assay type: physicochemical; details: FIG. 1A
Method: Lyophilized peptides were dissolved in milliQ water and vortexed to get a homogenous solution. Subsequently, 10× phosphate buffered saline at the final concentration of 1× was added to the peptide solution and vortexed shortly. Gelation occurred within few seconds to minutes or hours depending on the peptide sequence.

Ac-IVFK-NH2
average fiber diameter [1]: 10.3 nm | self-assembly into hydrogel [2]: self-assemble into macromolecular nanofibrous hydrogels

Ac-IVOK-NH2 (Ac-IV[Cha]K-NH2; SMILES CC[C@H](C)[C@H](NC(C)=O)C(=O)N[C@H](C(=O)N[C@@H](CC1CCCCC1)C(=O)N[C@@H](CCCCN)C(N)=O)C(C)C) [IVZK, ultrashort self-assembling peptide; Z undefined, probably cyclohexylalanine]
self-assembly into hydrogel [2]: self-assemble into macromolecular nanofibrous hydrogels
